# Assay results: IntAct's records for PubMed 12925767
# B1: DASH complex subunit DAM1 (Saccharomyces cerevisiae), P53267 (parent)
# chain: MSEDKAKLGTTRSATEYRLSIGSAPTSRRSSMGESSSLMKFADQEGLTSSVGEYNENTIQQLLLPKIRELSDSIITLDSNFTRLNFIHESLADLNESLGSLLYGIMSNSWCVEFSQAPHDIQDDLIAIKQLKSLEDEKNNLVMELSNMERGIKRKKDEQGENDLAKASQNKQFNQPLFPSSQVRKYRSYDNRDKRKPSKIGNNLQVENEEDYEDDTSSEASFVLNPTNIGMSKSSQGHVTKTTRLNNNTNSKLRRKSILHTIRNSIASGADLPIENDNVVNLGDLHPNNRISLGSGAARVVNGPVTKNRNSMFSGRAERKPTESRHSVAKKTEKKINTRPPFR
# Variants of: B1
# Details: with nup82_yeast NUP82, P40368
# nup82_yeast NUP82, P40368, sequence (P40368 whole entry): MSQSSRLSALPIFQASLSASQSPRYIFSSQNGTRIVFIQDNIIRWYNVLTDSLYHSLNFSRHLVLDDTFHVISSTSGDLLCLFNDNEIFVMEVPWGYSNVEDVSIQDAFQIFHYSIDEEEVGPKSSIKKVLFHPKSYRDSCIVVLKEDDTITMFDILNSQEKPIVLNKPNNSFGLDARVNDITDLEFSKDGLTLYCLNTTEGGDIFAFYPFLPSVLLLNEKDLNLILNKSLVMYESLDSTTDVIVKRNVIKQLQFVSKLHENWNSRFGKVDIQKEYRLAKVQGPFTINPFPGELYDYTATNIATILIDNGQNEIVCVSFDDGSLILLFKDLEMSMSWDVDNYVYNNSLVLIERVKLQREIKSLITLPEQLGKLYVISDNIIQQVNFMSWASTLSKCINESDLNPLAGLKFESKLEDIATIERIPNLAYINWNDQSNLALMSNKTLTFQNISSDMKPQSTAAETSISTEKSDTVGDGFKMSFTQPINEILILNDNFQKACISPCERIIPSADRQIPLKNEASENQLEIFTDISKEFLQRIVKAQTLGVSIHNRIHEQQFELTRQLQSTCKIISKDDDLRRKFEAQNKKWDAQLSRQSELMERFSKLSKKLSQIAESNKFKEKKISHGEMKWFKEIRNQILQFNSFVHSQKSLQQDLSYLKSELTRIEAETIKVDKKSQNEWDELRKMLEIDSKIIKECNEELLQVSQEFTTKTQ
row,Variant,effect of a mutation on the interaction
1,MSEDKAKLGTTRSATEYRLAIGSAPTSRRSSMGESSSLMKFADQEGLTSSVGEYNENTIQQLLLPKIRELSDSIITLDSNFTRLNFIHESLADLNESLGSLLYGIMSNSWCVEFSQAPHDIQDDLIAIKQLKSLEDEKNNLVMELSNMERGIKRKKDEQGENDLAKASQNKQFNQPLFPSSQVRKYRSYDNRDKRKPSKIGNNLQVENEEDYEDDTSSEASFVLNPTNIGMSKSSQGHVTKTTRLNNNTNSKLRRKAILHTIRNAIASGADLPIENDNVVNLGDLHPNNRIALGSGAARVVNGPVTKNRNSMFSGRAERKPTESRHSVAKKTEKKINTRPPFR [S20A;S257A;S265A;S292A],causing an interaction

# Variants of: B1
# Details: with bmh1_yeast BMH1, P29311
# bmh1_yeast BMH1, P29311, sequence (P29311 whole entry): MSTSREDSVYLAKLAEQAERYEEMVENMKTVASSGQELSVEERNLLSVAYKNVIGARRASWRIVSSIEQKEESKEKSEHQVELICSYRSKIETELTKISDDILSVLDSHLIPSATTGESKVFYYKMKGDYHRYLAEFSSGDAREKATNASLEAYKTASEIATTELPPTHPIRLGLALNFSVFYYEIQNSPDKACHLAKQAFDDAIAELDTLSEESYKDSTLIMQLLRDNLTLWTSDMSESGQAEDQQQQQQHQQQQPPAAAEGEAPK
row,Variant,effect of a mutation on the interaction
1,MSEDKAKLGTTRSATEYRLAIGSAPTSRRSSMGESSSLMKFADQEGLTSSVGEYNENTIQQLLLPKIRELSDSIITLDSNFTRLNFIHESLADLNESLGSLLYGIMSNSWCVEFSQAPHDIQDDLIAIKQLKSLEDEKNNLVMELSNMERGIKRKKDEQGENDLAKASQNKQFNQPLFPSSQVRKYRSYDNRDKRKPSKIGNNLQVENEEDYEDDTSSEASFVLNPTNIGMSKSSQGHVTKTTRLNNNTNSKLRRKAILHTIRNAIASGADLPIENDNVVNLGDLHPNNRIALGSGAARVVNGPVTKNRNSMFSGRAERKPTESRHSVAKKTEKKINTRPPFR [S20A;S257A;S265A;S292A],causing an interaction

# Variants of: B1
# Details: with med21_yeast SRB7, P47822
# med21_yeast SRB7, P47822, sequence (P47822 whole entry): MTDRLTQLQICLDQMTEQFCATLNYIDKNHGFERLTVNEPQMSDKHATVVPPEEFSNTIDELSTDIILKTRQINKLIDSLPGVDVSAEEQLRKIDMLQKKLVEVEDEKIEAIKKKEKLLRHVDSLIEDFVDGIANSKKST
row,Variant,effect of a mutation on the interaction
1,MSEDKAKLGTTRSATEYRLDIGSAPTSRRSSMGESSSLMKFADQEGLTSSVGEYNENTIQQLLLPKIRELSDSIITLDSNFTRLNFIHESLADLNESLGSLLYGIMSNSWCVEFSQAPHDIQDDLIAIKQLKSLEDEKNNLVMELSNMERGIKRKKDEQGENDLAKASQNKQFNQPLFPSSQVRKYRSYDNRDKRKPSKIGNNLQVENEEDYEDDTSSEASFVLNPTNIGMSKSSQGHVTKTTRLNNNTNSKLRRKDILHTIRNDIASGADLPIENDNVVNLGDLHPNNRIDLGSGAARVVNGPVTKNRNSMFSGRAERKPTESRHSVAKKTEKKINTRPPFR [S20D;S257D;S265D;S292D],causing an interaction
